The values below come from PMC10700433.

For orientation: Kd means the concentration at which binding is half-saturated.

Assay [1] addresses ATOR-1017 (evunzekibart) (human). The experiment in a line: BLI; Octet RED96; antibodies captured on FABG2 biosensor tips, recombinant Fcγ receptors in solution at suitable concentration ranges; association and dissociation at physiological pH. The settings on record: remark: other sources report otherwise. A general note: Biolayer interferometry detects binding as a change in optical thickness at a sensor tip.

Assay [2] deals with human 4-1BB on activated primary human immune cells (human (endogenous in primary PBMC)) (UniProt Q07011).
Chain of human 4-1BB on activated primary human immune cells (human (endogenous in primary PBMC)) (Q07011 24-255): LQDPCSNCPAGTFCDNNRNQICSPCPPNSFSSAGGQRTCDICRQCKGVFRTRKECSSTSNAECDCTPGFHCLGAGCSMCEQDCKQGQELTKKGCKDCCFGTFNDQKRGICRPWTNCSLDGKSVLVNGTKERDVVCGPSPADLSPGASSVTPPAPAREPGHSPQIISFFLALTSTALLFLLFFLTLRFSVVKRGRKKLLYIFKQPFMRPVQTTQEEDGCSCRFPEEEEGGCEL

B1: mouse FcγRI, P26151 25-404 (receptor)
chain: EVVNATKAVITLQPPWVSIFQKENVTLWCEGPHLPGDSSTQWFINGTAVQISTPSYSIPEASFQDSGEYRCQIGSSMPSDPVQLQIHNDWLLLQASRRVLTEGEPLALRCHGWKNKLVYNVVFYRNGKSFQFSSDSEVAILKTNLSHSGIYHCSGTGRHRYTSAGVSITVKELFTTPVLRASVSSPFPEGSLVTLNCETNLLLQRPGLQLHFSFYVGSKILEYRNTSSEYHIARAEREDAGFYWCEVATEDSSVLKRSPELELQVLGPQSSAP
modifications: here or on the partner: soluble ectodomain assumed for BLI
On to B1, for which the Kd in assay [1] is 200 nM.

B2: human FcγRIIa, P12318 34-317 (receptor)
chain: QAAAPPKAVLKLEPPWINVLQEDSVTLTCQGARSPESDSIQWFHNGNLIPTHTQPSYRFKANNNDSGEYTCQTGQTSLSDPVHLTVLSEWLVLQTPHLEFQEGETIMLRCHSWKDKPLVKVTFFQNGKSQKFSHLDPTFSIPQANHSHSGDYHCTGNIGYTLFSSKPVTITVQVPSMGSSSPMG
modifications: here or on the partner: Soluble extracellular domain by convention (UniProt topology); construct limits not printed. Allotype of the recombinant protein not stated in the excerpt: given as H131 (H167 in precursor numbering);
Turning to B2, the Kd in assay [1] worked out at 1000 nM.

B3: ATOR-1017 (evunzekibart) (antibody, V domains shown)
VH: EVQLLESGGGLVQPGGSLRLSCAASGFNFGYSYMSWVRQAPGKGLEWVSSIGSTSSHTYYADSVKGRFTISRDNSKNTLYLQMNSLRAEDTAVYYCARVYSSPGIDYWGQGTLVTVSS
VL: DIQMTQSPSSLSASVGDRVTITCRASQSIGSTLNWYQQKPGKAPKLLIYGASSLQSGVPSRFSGSGSGTDFTLTISSLQPEDFATYYCQQYYTWVPFTFGQGTKLEIK
In assay [2], B3 returned an IFNγ production by IL-2 pre-stimulated human NK cells co-cultured with FcγRI-CHO cells, serially diluted ATOR-1017 of 0.1 nM and an IFNγ production by anti-CD3-activated human CD8+ T cells co-cultured with FcγRI-CHO cells, 72 h, serially diluted ATOR-1017 of 0.2 nM.

B4: human FcγRIIb, P31994 43-310 (receptor)
chain: TPAAPPKAVLKLEPQWINVLQEDSVTLTCRGTHSPESDSIQWFHNGNLIPTHTQPSYRFKANNNDSGEYTCQTGQTSLSDPVHLTVLSEWLVLQTPHLEFQEGETIVLRCHSWKDKPLVKVTFFQNGKSKKFSRSDPNFSIPQANHSHSGDYHCTGNIGYTLYSSKPVTITVQAP
modifications: here or on the partner: soluble ectodomain assumed for BLI
Regarding B4, the Kd in assay [1] is 800 nM.
